Results from publication PMC12828403.

Target: polyketide synthase 16 (Pks16) (Dictyostelium discoideum (endogenous in AX2-214 cells)) (UniProt Q869W9)
Experiment: cryo-EM structure; shotgun EM of endogenous assemblies in a heterogeneous pool of SEC and mixed-bed IEX fractions of D. discoideum lysate; 50 mM Hepes pH 7.4, 100 mM NaCl, 3 mM MgSO4, 0.1 mM EGTA, 1 mM DTT, 2% glycerol; 200 kV Glacios; proteins identified by MS of the same sample; AlphaFold 3 models fitted into the maps

For “polyketide synthase 16 (Pks16), Q869W9 1-2603”, the stoichiometry N was 2.
